Earlier results, collected in publication PMC2726620 (Journal of medicinal chemistry, 2008).
Non-standard residues stand in square brackets, D forms with d. Residues, ends and D or L forms follow the SMILES beside them. No end group written: not given here. *: point of attachment. Fmoc = O=C(OCC1c2ccccc2-c2ccccc21)*; NMePhg = CN[C@H](C(=O)O)c1ccccc1; Cha = N[C@@H](CC1CCCCC1)C(=O)O

Legend:
mR1 dimer = conditions: read-out: Ki for mR1 dimer; from directed minilibrary screening studies
ScRR = molecular target: T1, ScRR (Saccharomyces cerevisiae, UniProt P21524); conditions: read-out: IC50, ScRR; footnote *: IC50 values were reported in [30]
T1 sequence (P21524 1-888): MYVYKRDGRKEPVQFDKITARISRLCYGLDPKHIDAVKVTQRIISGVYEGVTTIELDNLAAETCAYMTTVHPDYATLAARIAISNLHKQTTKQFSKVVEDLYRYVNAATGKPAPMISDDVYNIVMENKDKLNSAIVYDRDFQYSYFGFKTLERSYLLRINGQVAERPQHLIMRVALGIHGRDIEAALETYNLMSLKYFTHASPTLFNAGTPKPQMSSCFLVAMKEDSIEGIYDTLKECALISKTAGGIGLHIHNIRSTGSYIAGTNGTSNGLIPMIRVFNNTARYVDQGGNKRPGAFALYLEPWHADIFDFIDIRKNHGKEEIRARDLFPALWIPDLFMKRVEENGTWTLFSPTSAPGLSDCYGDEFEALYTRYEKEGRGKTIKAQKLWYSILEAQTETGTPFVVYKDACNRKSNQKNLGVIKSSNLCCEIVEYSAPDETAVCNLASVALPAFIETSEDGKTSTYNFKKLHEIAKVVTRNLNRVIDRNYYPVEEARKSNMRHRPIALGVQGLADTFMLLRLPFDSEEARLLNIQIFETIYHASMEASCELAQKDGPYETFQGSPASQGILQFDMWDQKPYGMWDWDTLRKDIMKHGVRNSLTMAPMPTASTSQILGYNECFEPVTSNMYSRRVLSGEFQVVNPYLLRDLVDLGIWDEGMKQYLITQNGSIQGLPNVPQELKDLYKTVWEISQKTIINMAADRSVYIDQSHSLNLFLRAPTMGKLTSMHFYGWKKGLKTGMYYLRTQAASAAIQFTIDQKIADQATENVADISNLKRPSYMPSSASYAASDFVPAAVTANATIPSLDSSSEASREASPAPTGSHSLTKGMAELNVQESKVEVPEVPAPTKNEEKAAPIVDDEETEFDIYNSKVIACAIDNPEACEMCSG

[1] = molecular target: EcR2 octapeptide C-terminal octapeptide (Escherichia coli) (UniProt P69924)
[2] = molecular target: EcR2 20-mer peptide C-terminal 20-mer (Escherichia coli) (UniProt P69924)
Sequence of EcR2 20-mer peptide C-terminal 20-mer (Escherichia coli) (P69924 357-376): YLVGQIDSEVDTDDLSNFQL

Sequence of EcR2 octapeptide C-terminal octapeptide (Escherichia coli) (P69924 whole entry, looked up): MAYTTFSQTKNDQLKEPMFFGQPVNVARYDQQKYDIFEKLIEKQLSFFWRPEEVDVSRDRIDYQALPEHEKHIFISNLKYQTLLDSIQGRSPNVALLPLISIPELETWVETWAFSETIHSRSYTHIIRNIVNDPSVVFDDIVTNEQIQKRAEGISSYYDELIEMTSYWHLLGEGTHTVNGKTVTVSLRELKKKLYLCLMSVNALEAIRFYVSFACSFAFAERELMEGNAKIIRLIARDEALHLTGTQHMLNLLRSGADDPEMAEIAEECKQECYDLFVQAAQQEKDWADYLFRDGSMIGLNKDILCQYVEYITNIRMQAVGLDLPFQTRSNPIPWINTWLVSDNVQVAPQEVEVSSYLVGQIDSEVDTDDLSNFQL

For `CC(C)C[C@H](NC(=O)[C@H](c1ccccc1)N(C)C(=O)OCC1c2ccccc2-c2ccccc21)C(=O)N[C@@H](CC(=O)O)C(=O)N[C@@H](CC1CCCCC1)C(=O)N[C@@H](CC(=O)O)C(=O)N[C@@H](Cc1ccccc1)C(=O)O` [P6, ^1Fmoc(Me)PhgLDChaDF^7] (Fmoc-[NMePhg]LD[Cha]DF-OH; C-terminus assumed), which Ki (mR1 dimer) is on record?
The Ki was 0.31 µM.

Which IC50 (ScRR) does the source give for “^1FTFNEDF^7 (not fully specified; printed as 1FTFNEDF7) [ScR2]” here?
Its IC50 is 44 µM.

Which IC50 (ScRR) does the source give for “^2NFDDDF^7 (not fully specified; printed as 2NFDDDF7) [ScR4]” here?
The IC50 was 30 µM.

Which results are given for “ribonucleotide reductase R1 (EcR1) (from UniProt P00452)”?
Ki [1]: 370 µM; Ki [2]: 20 µM
